# Test results from US20200339678A1 (RIGEL PHARMACEUTICALS, published 2020).
# T1: His-tagged recombinant Mouse TIGIT (mouse, UniProt P86176 29-148, limits assumed)
# T1 construct: not shown: His tag
# T1 sequence (looked up): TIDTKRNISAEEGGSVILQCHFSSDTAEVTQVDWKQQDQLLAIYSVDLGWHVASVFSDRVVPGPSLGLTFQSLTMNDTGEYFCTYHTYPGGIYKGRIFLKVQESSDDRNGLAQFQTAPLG
# B1: Ab11 (Fab, V domains shown)
# VH: EVQLLESGGGLVQPGGSLRLSCAASGFTFSSYGMHWVRQAPGKGLEWVASISSNGGYTSYADSVKGRFTISRDNSKNTLYLQMNSLRAEDTAVYYCARVPYGYWIDYWGQGTLVTVSS
# VL: not shown
# notes: ARV set
# B2: Ab30 (Fab, V domains shown)
# VH: EVQLLESGGGLVQPGGSLRLSCAASGFTFSSYGMHWVRQAPGKGLEWVASIKSNSGNTGYADSVKGRFTISRDNSKNTLYLQMNSLRAEDTAVYYCARVPYSVWMDYWGQGTLVTVSS
# VL: not shown
# notes: ARV set
# B3: Ab33 (Fab, V domains shown)
# VH: EVQLLESGGGLVQPGGSLRLSCAASGFTFSSYGMHWVRQAPGKGLEWVSDISSNGGTIYYADSVKGRFTISRDNSKNTLYLQMNSLRAEDTAVYYCARGPYGVWLDYWGQGTLVTVSS
# VL: not shown
# notes: ARG set
# B4: Ab35 (Fab, V domains shown)
# VH: EVQLLESGGGLVQPGGSLRLSCAASGFTFSSYGMHWVRQAPGKGLEWVASISSSSGYKYYADSVKGRFTISRDNSKNTLYLQMNSLRAEDTAVYYCARVPYSYWMDYWGQGTLVTVSS
# VL: not shown
# notes: ARV set
# B5: Ab37 (Fab, V domains shown)
# VH: EVQLLESGGGLVQPGGSLRLSCAASGFTFSSYGMNWVRQAPGKGLEWVSDINSNSGSTSYADSVKGRFTISRDNSKNTLYLQMNSLRAEDTAVYYCARGPYGVWLDYWGQGTLVTVSS
# VL: not shown
# notes: ARG set
# B6: Ab58 (Fab, V domains shown)
# VH: EVQLLESGGGLVQPGGSLRLSCAASGFTFSSYAMSWVRQAPGKGLEWVSSIKSSAGSSYYADSVKGRFTISRDNSKNTLYLQMNSLRAEDTAVYYCAREPYDVWIDYWGQGTLVTVSS
# VL: not shown
# notes: ARE set
# B7: Ab62 (Fab, V domains shown)
# VH: EVQLLESGGGLVQPGGSLRLSCAASGFTFSSYSMSWVRQAPGKGLEWVASISSSAGYSYYADSVKGRFTISRDNSKNTLYLQMNSLRAEDTAVYYCARVPYDVWIDYWGQGTLVTVSS
# VL: not shown
# notes: ARV set
# B8: Ab63 (Fab, V domains shown)
# VH: EVQLLESGGGLVQPGGSLRLSCAASGFTFSSYSMHWVRQAPGKGLEWVASISGSTGTSYYADSVKGRFTISRDNSKNTLYLQMNSLRAEDTAVYYCARVPYGYWIDYWGQGTLVTVSS
# VL: not shown
# notes: ARV set
# B9: Ab106 (Fab, V domains shown)
# VH: EVQLLESGGGLVQPGGSLRLSCAASGFTFSSYAMNWVRQAPGKGLEWVASIKSSTGTISYADSVKGRFTISRDNSKNTLYLQMNSLRAEDTAVYYCAREPYSVWIDYWGQGTLVTVSS
# VL: not shown
# notes: ARE set
# B10: Ab112 (Fab, V domains shown)
# VH: EVQLLESGGGLVQPGGSLRLSCAASGFTFSSYAMSWVRQAPGKGLEWVASISSNTGSIYYADSVKGRFTISRDNSKNTLYLQMNSLRAEDTAVYYCARVPYSYWLDYWGQGTLVTVSS
# VL: not shown
# notes: ARV set
# B11: Ab118 (Fab, V domains shown)
# VH: EVQLLESGGGLVQPGGSLRLSCAASGFTFSSYAMSWVRQAPGKGLEWVSSINSNAGTSYYADSVKGRFTISRDNSKNTLYLQMNSLRAEDTAVYYCARVPYGYWMDYWGQGTLVTVSS
# VL: not shown
# notes: ARV set
# B12: Ab120 (Fab, V domains shown)
# VH: EVQLLESGGGLVQPGGSLRLSCAASGFTFSSYSMNWVRQAPGKGLEWVSSINSNAGTIYYADSVKGRFTISRDNSKNTLYLQMNSLRAEDTAVYYCARVPYDYWIDYWGQGTLVTVSS
# VL: not shown
# notes: ARV set
# B13: Ab125 (Fab, V domains shown)
# VH: EVQLLESGGGLVQPGGSLRLSCAASGFTFSSYSMHWVRQAPGKGLEWVASIKGNAGTTYYADSVKGRFTISRDNSKNTLYLQMNSLRAEDTAVYYCAKVPYDVWMDYWGQGTLVTVSS
# VL: not shown
# notes: ARV set
# B14: Ab126 (Fab, V domains shown)
# VH: EVQLLESGGGLVQPGGSLRLSCAASGFTFSSYAMHWVRQAPGKGLEWVASISSSTGSIGYADSVKGRFTISRDNSKNTLYLQMNSLRAEDTAVYYCARVPYSYWMDYWGQGTLVTVSS
# VL: not shown
# notes: ARV set
# B15: Ab164 (Fab, V domains shown)
# VH: EVQLLESGGGLVQPGGSLRLSCAASGFTFSSYAMSWVRQAPGKGLEWVSYINSNTGSIGYADSVKGRFTISRDNSKNTLYLQMNSLRAEDTAVYYCAREPYGVWMDYWGQGTLVTVSS
# VL: not shown
# notes: ARE set
# B16: Ab167 (Fab, V domains shown)
# VH: EVQLLESGGGLVQPGGSLRLSCAASGFTFSSYAMHWVRQAPGKGLEWVASISGNAGSSSYADSVKGRFTISRDNSKNTLYLQMNSLRAEDTAVYYCARVPYGVWIDYWGQGTLVTVSS
# VL: not shown
# notes: ARV set
# B17: Ab182 (Fab, V domains shown)
# VH: EVQLLESGGGLVQPGGSLRLSCAASGFTFSSYSMHWVRQAPGKGLEWVASISSNTGTTGYADSVKGRFTISRDNSKNTLYLQMNSLRAEDTAVYYCARVPYGYWIDYWGQGTLVTVSS
# VL: not shown
# notes: ARV set
# B18: Ab190 (Fab, V domains shown)
# VH: EVQLLESGGGLVQPGGSLRLSCAASGFTFSSYAMHWVRQAPGKGLEWVAAIKSSAGYSYYADSVKGRFTISRDNSKNTLYLQMNSLRAEDTAVYYCARVPYGVWIDYWGQGTLVTVSS
# VL: not shown
# notes: ARV set
# B19: Ab192 (Fab, V domains shown)
# VH: EVQLLESGGGLVQPGGSLRLSCAASGFTFSSYAMHWVRQAPGKGLEWVSSISSDTGYIGYADSVKGRFTISRDNSKNTLYLQMNSLRAEDTAVYYCARVPYDVWIDYWGQGTLVTVSS
# VL: not shown
# notes: ARV set
# B20: Ab196 (Fab, V domains shown)
# VH: EVQLLESGGGLVQPGGSLRLSCAASGFTFSSYSMNWVRQAPGKGLEWVSSIKGSAGTTSYADSVKGRFTISRDNSKNTLYLQMNSLRAEDTAVYYCAREPYSVWMDYWGQGTLVTVSS
# VL: not shown
# notes: ARE set
# B21: Ab88 (Fab, V domains shown)
# VH: EVQLLESGGGLVQPGGSLRLSCAASGFTFSSYSMSWVRQAPGKGLEWVASISSSAGTTSYADSVKGRFTISRDNSKNTLYLQMNSLRAEDTAVYYCARVPYGVWIDYWGQGTLVTVSS
# VL: not shown
# notes: ARV set
# B22: Ab5 (Fab, V domains shown)
# VH: EVQLLESGGGLVQPGGSLRLSCAASGFTFSDYSMNWVRQAPGKGLEWVALIKSNSGSTSYADSVKGRFTISRDNSKNTLYLQMNSLRAEDTAVYYCARGPYDVWMDYWGQGTLVTVSS
# VL: not shown
# notes: ARG set
# B23: Ab8 (Fab, V domains shown)
# VH: EVQLLESGGGLVQPGGSLRLSCAASGFTFSSYAMSWVRQAPGKGLEWVADIKSNGGYTYYADSVKGRFTISRDNSKNTLYLQMNSLRAEDTAVYYCARVPYGYWLDYWGQGTLVTVSS
# VL: not shown
# notes: ARV set
# B24: Ab9 (Fab, V domains shown)
# VH: EVQLLESGGGLVQPGGSLRLSCAASGFTFDSYSMHWVRQAPGKGLEWVANIKSSGGYISYADSVKGRFTISRDNSKNTLYLQMNSLRAEDTAVYYCARGPYDVWMDYWGQGTLVTVSS
# VL: not shown
# notes: ARG set
# B25: Ab14 (Fab, V domains shown)
# VH: EVQLLESGGGLVQPGGSLRLSCAASGFTFSSYGMHWVRQAPGKGLEWVSSISSSGGTKGYADSVKGRFTISRDNSKNTLYLQMNSLRAEDTAVYYCARVPYDVWMDYWGQGTLVTVSS
# VL: not shown
# notes: ARV set
# Biological target: T1, His-tagged recombinant Mouse TIGIT
# Assay: ELISA, coated His-tagged mouse TIGIT
# Experimental: Binding affinities for antigen binding to anti-TIGIT monoclonal antibodies were determined by ELISA. […] Antibodies to be tested were diluted to 1 μM in PBS buffer containing 1% BSA and diluted 3-fold in a 10-point curve. […] Detection of the secondary antibody was determined using streptavidin-HRP and TMB reagent. All assays were performed at room temperature. Curve-fitting software was used to determine the EC₅₀ for each antibody.
row,Binder,EC50
1,B1,359 nM
2,B2,135 nM
3,B3,85.4 nM
4,B4,357 nM
5,B5,221 nM
6,B6,170 nM
7,B7,361 nM
8,B8,178 nM
9,B9,125 nM
10,B10,213 nM
11,B11,110 nM
12,B12,254 nM
13,B13,150 nM
14,B14,64.1 nM
15,B15,289 nM
16,B16,61.2 nM
17,B17,200 nM
18,B18,23.4 nM
19,B19,295 nM
20,B20,19.5 nM
21,B21,407 nM
22,B22,322 nM
23,B23,149 nM
24,B24,181 nM
25,B25,169 nM
